Data set [1] deals with the molecule itself. In words: native gel or EMSA; endpoint polymerisation: 0.1 mg/ml heated for 4 h (55°C, or 45-63°C) without antibody during heating; bis-Tris non-denaturing PAGE, Coomassie; polymerisation read as loss of the monomer band. In general terms: Mobility shift assays separate free from complexed probe on a gel.
Data set [2] deals with T1, α1-antitrypsin, plasma-derived wild-type (M) (UniProt P01009 25-418).
T1 construct: alpha1-antitrypsin, wild-type 'M' allele, plasma-derived; also called α1-AT; α1-ATWT; source: plasma-derived
Briefly: progress curves of intrinsic protein fluorescence (peptide incorporation) + native gel or EMSA; as a5, in the presence of mAb4B12. The conditions noted are these: both partners purified.

In data set [3] the target is α1-antitrypsin, plasma-derived wild-type (M) (UniProt P01009). The description is as above.

B1: α1-AT_(79-306), disulphide variant Gly79Cys/Leu306Cys (natural protein, UniProt P01009 25-418, looked up)
chain: EDPQGDAAQKTDTSHHDQDHPTFNKITPNLAEFAFSLYRQLAHQSNSTNIFFSPVSIATAFAMLSLGTKADTHDEILECLNFNLTEIPEAQIHEGFQELLRTLNQPDSQLQLTTGNGLFLSEGLKLVDKFLEDVKKLYHSEAFTVNFGDTEEAKKQINDYVEKGTQGKIVDLVKELDRDTVFALVNYIFFKGKWERPFEVKDTEEEDFHVDQVTTVKVPMMKRLGMFNIQHSKKLSSWVLLMKYLGNATAIFFLPDEGKLQHLENELTHDIITKFLENEDRRSASLHLPKLSITGTYDLKSVLGQCGITKVFSNGADLSGVTEEAPLKLSKAVHKAVLTIDEKGTEAAGAMFLEAIPMSIPPEVKFNKPFVFLMIEQNTKSPLFMGKVVNPTQK
modifications: disulphide 79-306 present in ~90% of molecules
notes: alpha1-antitrypsin, 'M' allele, engineered disulphide between helix C and the C-terminus of helix I, on the Cys232Ser background; also called 79-306 double mutant; source: E. coli XL-1 blue, pQE-30-based plasmid, purified
With B1, in data set [1], the binding result is on record as “binds”.

B2: 11-mer RCL peptide Ac-SEAAASTAVVI-NH2 (peptide)
peptide: Ac-SEAAASTAVVI-NH2
notes: model peptide corresponding with the reactive centre loop (RCL) of anti-thrombin; source: synthetic peptide
Take B2: in data set [2], the “fold increase in the rate of peptide incorporation with mAb4B12 against the non-antibody-bound control” value worked out at 2.5 fold.

Regarding Ac-FLAA-NH2 [4-mer peptide Ac-FLAA-NH2], the fold increase in the rate of peptide incorporation with mAb4B12 against the non-antibody-bound control in data set [3] was 1.8 fold.

Source of the values: paper PMC5264506, “An antibody that prevents serpin polymerisation acts by inducing a novel allosteric behaviour” (Biochemical Journal, 2016).
